Experimental data taken from patent publication US11833164B2, “Methods of treating Fabry disease in patients having a mutation in the GLA gene” (Amicus Therapeutics, Inc., priority 2019, dated 2023).
Positions count from the first letter of the chain named. Names may count otherwise.

B1: D153Y (protein)
chain: MQLRNPELHLGCALALRFLALVSWDIPGARALDNGLARTPTMGWLHWERFMCNLDCQEEPDSCISEKLFMEMAELMVSEGWKDAGYEYLCIDDCWMAPQRDSEGRLQADPQRFPHGIRQLANYVHSKGLKLGIYADVGNKTCAGFPGSFGYYYIDAQTFADWGVDLLKFDGCYCDSLENLADGYKHMSLALNRTGRSIVYSCEWPLYMWPFQKPNYTEIRQYCNHWRNFADIDDSWKSIKSILDWTSFNQERIVDVAGPGGWNDPDMLVIGNFGLSWNQQVTQMALWAIMAAPLFMSNDLRHISPQAKALLQDKDVIAINQDPLGKQGYQLRQGDNFEVWERPLSGLAWAVAMINRQEIGGPRSYTIAVASLGKGVACNPACFITQLLPVKRKLGFYEWTSRLRSHINPTGTVLLQLENTMQMSLKDLL
B2: T158A (protein)
chain: B1 chain with Y153D, T158A
B3: A160G (protein)
chain: B1 chain with Y153D, A160G
B4: T158S (protein)
chain: B1 chain with Y153D, T158S
B5: A156G (protein)
chain: B1 chain with Y153D, A156G
B6: Q157E (protein)
chain: B1 chain with Y153D, Q157E
B7: A160T (protein)
chain: B1 chain with Y153D, A160T
B8: Q157P (protein)
chain: B1 chain with Y153D, Q157P
B9: F159L (protein)
chain: B1 chain with Y153D, F159L
B10: Q157L (protein)
chain: B1 chain with Y153D, Q157L
B11: T158I (protein)
chain: B1 chain with Y153D, T158I
B12: F159Y (protein)
chain: B1 chain with Y153D, F159Y
B13: D161V (protein)
chain: B1 chain with Y153D, D161V
B14: F159V (protein)
chain: B1 chain with Y153D, F159V
B15: F159I (protein)
chain: B1 chain with Y153D, F159I
B16: D161H (protein)
chain: B1 chain with Y153D, D161H
B17: D161N (protein)
chain: B1 chain with Y153D, D161N
B18: A160V (protein)
chain: B1 chain with Y153D, A160V
B19: A160S (protein)
chain: B1 chain with Y153D, A160S
B20: Q157K (protein)
chain: B1 chain with Y153D, Q157K
B21: T158N (protein)
chain: B1 chain with Y153D, T158N

Test system: mutant form of α-Gal A expressed in HEK-293 cells
Test: HEK assay (GLP HEK / Migalastat Amenability Assay): α-Gal A activity in lysates of transiently transfected HEK-293 cells incubated with or without 10 μM migalastat
Format: cell-based, human
Details: for Absolute increase (% WT): 10 μM migalastat versus baseline; for Relative increase: 10 μM migalastat α-Gal A activity relative to baseline; for 10 μM migalastat α-Gal A activity (% WT): 5 days; for 10 μM migalastat α-Gal A activity (% WT) / Baseline α-Gal A activity (% WT): percentage of baseline wild-type α-Gal A activity; for 10 μM migalastat α-Gal A activity (% WT) / Baseline α-Gal A activity (% WT) / Baseline α-Gal A activity / 10 μM migalastat α-Gal A activity: mean ± SEM; for Baseline α-Gal A activity (% WT): absence of migalastat; for Baseline α-Gal A activity / 10 μM migalastat α-Gal A activity: lysates of HEK-293 cells transfected with the mutant form; for Baseline α-Gal A activity: incubated 5 days in the absence of migalastat; for 10 μM migalastat α-Gal A activity: incubated 5 days with 10 μM migalastat
Procedure, shortened: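 HEK-293 cells transiently transfected with mutant α-Gal A and incubated with or without 10 μM migalastat; lysate activity given as nmol free 4-MU released per mg protein per hour. Values are mean±SEM.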

Molecule	Absolute increase (% WT)	Relative increase	10 μM migalastat α-Gal A activity (% WT)	Baseline α-Gal A activity (% WT)	Baseline α-Gal A activity [nmol/mg/h]	10 μM migalastat α-Gal A activity [nmol/mg/h]
B1	23.3	1.8	52.4 ± 2.8	29.1 ± 3.1	12609 ± 1299	22535 ± 1174
B2	28.7	1.7	67.3 ± 3.1	38.6 ± 2.5	14835 ± 1107	25678 ± 1673
B3	19.0	1.4	54.1 ± 5.3	35.1 ± 3.7	13634 ± 2705	19647 ± 3137
B4	19.8	1.3	99.1 ± 5.6	79.3 ± 4	31043 ± 2073	39060 ± 2937
B5	16.9	1.4	63.6 ± 4.3	46.7 ± 2.7	17406 ± 1187	23415 ± 1710
B6	24.1	1.3	101.5 ± 6.1	77.4 ± 4.1	28269 ± 1306	37204 ± 2126
B7	31.3	1.4	90.9 ± 8.1	59.6 ± 3.5	20193 ± 1713	29082 ± 1980
B8	40.6	5.4	49.6 ± 3.4	9 ± 1	3887 ± 487	20888 ± 1527
B9	28.0	1.4	103.6 ± 10.7	75.6 ± 8.4	22840 ± 1245	31357 ± 1408
B10	60.2	5.1	74.4 ± 4.3	14.3 ± 1.5	5734 ± 700	28942 ± 2013
B11	18.8	1.4	67.8 ± 3.4	49 ± 2.7	17360 ± 1159	24097 ± 1695
B12	22.4	3.9	30.1 ± 1.7	7.7 ± 0.7	2573 ± 301	10052 ± 825
B13	16.0	1.4	59.7 ± 2.7	43.7 ± 1.7	13728 ± 1344	19117 ± 2241
B14	29.8	1.6	80.7 ± 4.8	50.9 ± 2.9	16474 ± 1048	26241 ± 1907
B15	24.6	1.4	89.3 ± 4.2	64.7 ± 3.5	21543 ± 1754	29402 ± 1960
B16	15.5	1.2	77 ± 3.8	61.5 ± 2.9	21949 ± 2587	26457 ± 2512
B17	14.1	1.2	68.7 ± 4.9	54.5 ± 4.3	19553 ± 2838	24298 ± 3201
B18	21.9	1.4	66 ± 4.8	44.1 ± 2.7	15511 ± 1847	22124 ± 1885
B19	29.9	1.5	85.9 ± 6.3	56 ± 3.1	18308 ± 685	27775 ± 1478
B20	55.6	3.2	79.7 ± 5	24.1 ± 1.8	9815 ± 1083	31331 ± 2428
B21	12.8	3.1	18.2 ± 2	5.4 ± 0.2	1906 ± 106	5991 ± 499
